This is an account of results in patent CN111423507A (CAS CENTER FOR EXCELLENCE IN MOLECULAR CELL SCIENCE, dated 2020).

Assay [1] has as its target A/HongKong/01/1968(H3N2)HA蛋白 (Influenza A virus …, UniProt Q91MA7 17-530). Nature of the assay: ELISA, native HA coated at 1 ug/ml, antibody 5 ug/ml. For orientation: ELISA stands for enzyme-linked immunosorbent assay.
The target in assay [2] is 全长1968HongKong H3N2 HA (义翘神州 Cat:VG40116-NH, N端His标签, 293T表达) (Influenza A virus …, UniProt Q91MA7 17-566). Nature of the assay: Western blot of full-length HA expressed in 293T cells.
Sequence of 全长1968HongKong H3N2 HA (义翘神州 Cat:VG40116-NH, N端His标签, 293T表达) (Q91MA7 17-566 limits assumed): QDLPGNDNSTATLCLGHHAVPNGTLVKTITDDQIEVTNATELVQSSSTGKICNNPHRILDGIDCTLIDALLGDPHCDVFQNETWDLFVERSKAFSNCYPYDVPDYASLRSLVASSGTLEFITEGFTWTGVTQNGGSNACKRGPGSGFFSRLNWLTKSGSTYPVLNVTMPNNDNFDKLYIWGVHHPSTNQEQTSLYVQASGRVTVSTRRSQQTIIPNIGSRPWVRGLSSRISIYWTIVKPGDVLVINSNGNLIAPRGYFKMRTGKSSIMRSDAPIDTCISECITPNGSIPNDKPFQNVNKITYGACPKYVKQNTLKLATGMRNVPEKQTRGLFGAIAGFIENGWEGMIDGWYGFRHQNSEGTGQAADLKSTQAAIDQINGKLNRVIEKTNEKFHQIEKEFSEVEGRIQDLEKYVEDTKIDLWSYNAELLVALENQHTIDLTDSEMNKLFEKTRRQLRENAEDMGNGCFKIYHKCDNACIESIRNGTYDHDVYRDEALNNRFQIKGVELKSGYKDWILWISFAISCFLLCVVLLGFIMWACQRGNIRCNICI

Sequence of A/HongKong/01/1968(H3N2)HA蛋白 (Q91MA7 17-530 limits assumed): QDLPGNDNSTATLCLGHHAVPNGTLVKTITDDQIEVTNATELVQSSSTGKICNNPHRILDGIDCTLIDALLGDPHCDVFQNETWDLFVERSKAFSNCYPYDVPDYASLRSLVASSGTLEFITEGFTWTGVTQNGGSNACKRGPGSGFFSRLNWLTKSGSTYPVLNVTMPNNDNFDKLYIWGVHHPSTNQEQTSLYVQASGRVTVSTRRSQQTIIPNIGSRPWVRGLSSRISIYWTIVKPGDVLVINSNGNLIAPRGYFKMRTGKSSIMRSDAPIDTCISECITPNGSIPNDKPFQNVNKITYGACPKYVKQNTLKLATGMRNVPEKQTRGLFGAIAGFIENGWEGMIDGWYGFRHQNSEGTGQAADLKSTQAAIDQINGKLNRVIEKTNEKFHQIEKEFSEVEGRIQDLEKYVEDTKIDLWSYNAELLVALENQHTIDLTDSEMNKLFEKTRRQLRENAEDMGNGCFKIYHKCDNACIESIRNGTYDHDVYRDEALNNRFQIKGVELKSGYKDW

B1: 12mAb (antibody, V domains shown)
VH: EVQLVESGGGLVQPGGSLRLSCAASGFTFSTYNMNWVRQAPGKGLEWLSYISTSSNTIYYADSVKGRFTISRDNAKNSLFLQMNSLRDEDTAVYYCARDRGCSSTNCYVVGYYFYGMDVWGQGTTVTVSS
VL: DIQMTQSPSSVSASVGDRVTITCRASQGISSYLAWYQLKPGRAPKLLIYGATRLQSGVPSRFSGSGSGTDFTLTISGLQPEDFATYHCQQADSFPLTFGQGTRLEIK
For the molecule B1, the binding result in assay [1] and in assay [2] was “binds” each time.
